Data published in article PMC6109231.
Values joined by “and” are separate entries in the source; they are usually repeats but may differ in a detail not shown here. Identical values can stand only once.

Molecular target: 20S proteasome core (human (endogenous in HEK293T))
Assay: negative-stain EM, single-particle analysis; SEC fraction 4 (1.5 to 2 MDa) of HEK293T lysate, Superdex 200 in PBS pH 7.2 at 4°C; 2% uranyl acetate; raw micrographs, reference-free 2D class averages, 3D classification (RELION) and ab initio reconstruction (cryoSPARC); proteins identified by mass spectrometry of the fraction

stoichiometry N: 1 and 2
Substance: 19S regulatory particle (complex)
